Laboratory results reported in patent US6416738B1, “Pretargeting methods and compounds” (NeoRx Corporation, priority 1973, dated 2002).

Biological target: T1, NR-LU-10 antigen (Homo sapiens, UniProt P16422)
T1 construct: Positive NR-LU-10 tissue reactivity indicates NR-LU-10 antigen expression by such tissues; from tissue; host or cells: carcinoma and normal tissue specimens
T1 sequence (P16422 24-314): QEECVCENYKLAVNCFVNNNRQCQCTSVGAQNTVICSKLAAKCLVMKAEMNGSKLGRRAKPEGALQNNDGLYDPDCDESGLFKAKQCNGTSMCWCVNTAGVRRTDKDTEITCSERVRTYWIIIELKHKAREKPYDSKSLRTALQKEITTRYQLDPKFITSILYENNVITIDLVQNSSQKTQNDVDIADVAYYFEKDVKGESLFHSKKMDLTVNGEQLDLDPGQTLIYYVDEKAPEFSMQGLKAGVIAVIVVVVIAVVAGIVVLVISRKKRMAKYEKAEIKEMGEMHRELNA
Test: NR-LU-10 reactivity with normal tissues (Table B)
Format: binding
Text: Radioimmunoassays, immunoprecipitation and Fluorescence-Activated Cell Sorter (FACS) analysis were used to obtain reactivity profiles of NR-LU-10. The NR-LU-10 target antigen was present on either fixed cultured cells or in detergent extracts of various types of cancer cells. For example, the NR-LU-10 antigen is found in small cell lung, non-small cell lung, colon, breast, renal, ovarian, pancreatic, and other carcinoma tissues. Tumor reactivity of the NR-LU-10 antibody is set forth in Table A, while NR-LU-10 reactivity with normal tissues is set forth in Table B. The values in Table B are obtained as described below. Positive NR-LU-10 tissue reactivity indicates NR-LU-10 antigen expression by such tissues.
The tissue specimens were scored in accordance with three reactivity parameters: (1) the intensity of the reaction; (2) the uniformity of the reaction within the cell type; and (3) the percentage of cells reactive with the antibody. These three values are combined into a single weighted comparative value between 0 and 500, with 500 being the most intense reactivity. This comparative value facilitates comparison of different tissues. Table B includes a summary reactivity value, the number of tissue samples examined and the number of samples that reacted positively with NR-LU-10.

[1] = Adenoid: Lymphoid Follicle-Central
[2] = Adenoid: Lymphoid Follicle-Peripheral
[3] = Adrenal: Zona Fasciculata Cortex
[4] = Adrenal: Zona Glomerulosa Cortex
[5] = Adrenal: Zona Reticularis Cortex
[6] = Brain-Cerebellum: Axons, Myelinated
[7] = Brain-Cerebellum: Purkenje's Cells
[8] = Brain-Cerebrum: Axons, Myelinated
[9] = Brain-Midbrain: Axons, Myelinated
[10] = Gall Bladder: Mucosal Epithelium
[11] = Kidney: Distal Convoluted Tubules
[12] = Kidney: Proximal Convoluted Tubules
[13] = Liver: Central Lobular Hepatocyte
[14] = Lymph Node: Lymphoid Follicle-Central
[15] = Lymph Node: Lymphoid Follicle-Peripheral
[16] = Mammary Gland: Alveolar Epithelium

B1: NR-LU-10: 150 kilodalton IgG2b monoclonal antibody recognizing an approximately 40 kilodalton glycoprotein antigen expressed on most carcinomas (antibody, V domains shown)
VH: EVQLQQSGAELVKPGASVRLSCTASGFNIKDTYMHWVIERPEQGLEWIGRIDPANGNTKCDPKFQGKATITADTSSNTAYLQLSSLTSEDTAVYYCSREVLTGTWSLDYWGQGTSVTVSS
VL: DIQMIQSPSSMFASLGDRVSLSCRASQGIRGNLDWYQQKPGGTIKLLIYSTSNLNSGVPSRFSGSGSGSDYSLTISSLDSEDFADYYCLQRNAYPYTFGGGTKLEIK
- # Pos/Exam (Adenoid): 3/3
- Summary Reactivity (Adenoid): 433
- # Pos/Exam (Adenoid: Epithelium): 0/3
- Summary Reactivity (Adenoid: Epithelium): 0
- # Pos/Exam [1]: 0/3
- Summary Reactivity [1]: 0
- # Pos/Exam [2]: 2/2
- Summary Reactivity [2]: 400
- # Pos/Exam (Adipose Tissue: Fat Cells): 0/3
- Summary Reactivity (Adipose Tissue: Fat Cells): 0
- # Pos/Exam (Adrenal: Medulla): 0/3
- Summary Reactivity (Adrenal: Medulla): 0
- # Pos/Exam [3]: 0/3
- Summary Reactivity [3]: 0
- # Pos/Exam [4]: 0/3
- Summary Reactivity [4]: 0
- # Pos/Exam [5]: 0/3
- Summary Reactivity [5]: 0
- # Pos/Exam (Aorta: Elastic Interna): 0/3
- Summary Reactivity (Aorta: Elastic Interna): 0
- # Pos/Exam (Aorta: Endothelium): 0/3
- Summary Reactivity (Aorta: Endothelium): 0
- # Pos/Exam (Aorta: Tunica Adventitia): 0/3
- Summary Reactivity (Aorta: Tunica Adventitia): 0
- # Pos/Exam (Aorta: Tunica Media): 0/3
- Summary Reactivity (Aorta: Tunica Media): 0
- # Pos/Exam [6]: 0/3
- Summary Reactivity [6]: 0
- # Pos/Exam (Brain-Cerebellum: Microglia): 0/3
- Summary Reactivity (Brain-Cerebellum: Microglia): 0
- # Pos/Exam (Brain-Cerebellum: Neurons): 0/3
- Summary Reactivity (Brain-Cerebellum: Neurons): 0
- # Pos/Exam [7]: 0/3
- Summary Reactivity [7]: 0
- # Pos/Exam [8]: 0/3
- Summary Reactivity [8]: 0
- # Pos/Exam (Brain-Cerebrum: Microglia): 0/3
- Summary Reactivity (Brain-Cerebrum: Microglia): 0
- # Pos/Exam (Brain-Cerebrum: Neurons): 0/3
- Summary Reactivity (Brain-Cerebrum: Neurons): 0
- # Pos/Exam [9]: 0/3
- Summary Reactivity [9]: 0
- # Pos/Exam (Brain-Midbrain: Microglia): 0/3
- Summary Reactivity (Brain-Midbrain: Microglia): 0
- # Pos/Exam (Brain-Midbrain: Neurons): 0/3
- Summary Reactivity (Brain-Midbrain: Neurons): 0
- # Pos/Exam (Colon: Mucosal Epithelium): 3/3
- Summary Reactivity (Colon: Mucosal Epithelium): 500
- # Pos/Exam (Colon: Muscularis Externa): 0/3
- Summary Reactivity (Colon: Muscularis Externa): 0
- # Pos/Exam (Colon: Muscularis Mucosa): 0/3
- Summary Reactivity (Colon: Muscularis Mucosa): 0
- # Pos/Exam (Colon: Nerve Ganglia): 0/3
- Summary Reactivity (Colon: Nerve Ganglia): 0
- # Pos/Exam (Colon: Serosa): 0/1
- Summary Reactivity (Colon: Serosa): 0
- # Pos/Exam (Duodenum: Mucosal Epithelium): 3/3
- Summary Reactivity (Duodenum: Mucosal Epithelium): 500
- # Pos/Exam (Duodenum: Muscularis Mucosa): 0/3
- Summary Reactivity (Duodenum: Muscularis Mucosa): 0
- # Pos/Exam (Epididymis: Epithelium): 3/3
- Summary Reactivity (Epididymis: Epithelium): 419
- # Pos/Exam (Epididymis: Smooth Muscle): 0/3
- Summary Reactivity (Epididymis: Smooth Muscle): 0
- # Pos/Exam (Epididymis: Spermatozoa): 0/1
- Summary Reactivity (Epididymis: Spermatozoa): 0
- # Pos/Exam (Esophagus: Epithelium): 3/3
- Summary Reactivity (Esophagus: Epithelium): 86
- # Pos/Exam (Esophagus: Mucosal Gland): 2/2
- Summary Reactivity (Esophagus: Mucosal Gland): 450
- # Pos/Exam (Esophagus: Smooth Muscle): 0/3
- Summary Reactivity (Esophagus: Smooth Muscle): 0
- # Pos/Exam [10]: 0/3
- Summary Reactivity [10]: 467
- # Pos/Exam (Gall Bladder: Smooth Muscle): 0/3
- Summary Reactivity (Gall Bladder: Smooth Muscle): 0
- # Pos/Exam (Heart: Myocardium): 0/3
- Summary Reactivity (Heart: Myocardium): 0
- # Pos/Exam (Heart: Serosa): 0/1
- Summary Reactivity (Heart: Serosa): 0
- # Pos/Exam (Ileum: Lymph Node): 0/2
- Summary Reactivity (Ileum: Lymph Node): 0
- # Pos/Exam (Ileum: Mucosal Epithelium): 0/2
- Summary Reactivity (Ileum: Mucosal Epithelium): 0
- # Pos/Exam (Ileum: Muscularis Externa): 0/1
- Summary Reactivity (Ileum: Muscularis Externa): 0
- # Pos/Exam (Ileum: Muscularis Mucosa): 0/2
- Summary Reactivity (Ileum: Muscularis Mucosa): 0
- # Pos/Exam (Ileum: Nerve Ganglia): 0/1
- Summary Reactivity (Ileum: Nerve Ganglia): 0
- # Pos/Exam (Ileum: Serosa): 0/1
- Summary Reactivity (Ileum: Serosa): 0
- # Pos/Exam (Jejunum: Lymph Node): 0/1
- Summary Reactivity (Jejunum: Lymph Node): 0
- # Pos/Exam (Jejunum: Mucosal Epithelium): 2/2
- Summary Reactivity (Jejunum: Mucosal Epithelium): 400
- # Pos/Exam (Jejunum: Muscularis Externa): 0/2
- Summary Reactivity (Jejunum: Muscularis Externa): 0
- # Pos/Exam (Jejunum: Muscularis Mucosa): 0/2
- Summary Reactivity (Jejunum: Muscularis Mucosa): 0
- # Pos/Exam (Jejunum: Nerve Ganglia): 0/2
- Summary Reactivity (Jejunum: Nerve Ganglia): 0
- # Pos/Exam (Jejunum: Serosa): 0/1
- Summary Reactivity (Jejunum: Serosa): 0
- # Pos/Exam (Kidney: Collecting Tubules): 2/3
- Summary Reactivity (Kidney: Collecting Tubules): 160
- # Pos/Exam [11]: 3/3
- Summary Reactivity [11]: 500
- # Pos/Exam (Kidney: Glomerular Eipithelium): 0/3
- Summary Reactivity (Kidney: Glomerular Eipithelium): 0
- # Pos/Exam (Kidney: Mesangial): 0/3
- Summary Reactivity (Kidney: Mesangial): 0
- # Pos/Exam [12]: 3/3
- Summary Reactivity [12]: 500
- # Pos/Exam (Liver: Bile Duct): 3/3
- Summary Reactivity (Liver: Bile Duct): 500
- # Pos/Exam [13]: 1/3
- Summary Reactivity [13]: 4
- # Pos/Exam (Liver: Kupffer Cells): 0/3
- Summary Reactivity (Liver: Kupffer Cells): 0
- # Pos/Exam (Liver: Periportal Hepatocyte): 1/3
- Summary Reactivity (Liver: Periportal Hepatocyte): 40
- # Pos/Exam (Lung: Alveolar Macrophage): 0/3
- Summary Reactivity (Lung: Alveolar Macrophage): 0
- # Pos/Exam (Lung: Bronchial Epithelium): 0/2
- Summary Reactivity (Lung: Bronchial Epithelium): 0
- # Pos/Exam (Lung: Bronchial Smooth Muscle): 0/2
- Summary Reactivity (Lung: Bronchial Smooth Muscle): 0
- # Pos/Exam (Lung: Pneumocyte Type I): 3/3
- Summary Reactivity (Lung: Pneumocyte Type I): 354
- # Pos/Exam (Lung: Pneumocyte Type II): 3/3
- Summary Reactivity (Lung: Pneumocyte Type II): 387
- # Pos/Exam [14]: 0/3
- Summary Reactivity [14]: 0
- # Pos/Exam [15]: 0/3
- Summary Reactivity [15]: 0
- # Pos/Exam [16]: 3/3
- Summary Reactivity [16]: 500
- # Pos/Exam (Mammary Gland: Duct Epithelium): 3/3
- Summary Reactivity (Mammary Gland: Duct Epithelium): 500
- # Pos/Exam (Mammary Gland: Myoepithelium): 0/3
- Summary Reactivity (Mammary Gland: Myoepithelium): 0
- # Pos/Exam (Muscle Skeletal: Muscle Fiber): 0/3
- Summary Reactivity (Muscle Skeletal: Muscle Fiber): 0
- # Pos/Exam (Nerve: Axon, Myelinated): 0/2
- Summary Reactivity (Nerve: Axon, Myelinated): 0
- # Pos/Exam (Nerve: Endoneurium): 0/2
